The record followed here is US20170073664A1.

Experiment in all cases: cell_activity
Data set [1] relates to AAVS-SBI TALEN left (pZT-AAVS1 L1). To be noted: pair with right TALEN, 300 ng donor; control 111.
The test system of another data set is AAVS original TALEN left. To be noted: pair with right TALEN, HEK293F, 300 ng donor; control 111.
The next data set deals with eGFP-TALEN-18-Left. To be noted: pair; clone 6F HEK293; control 324; 95.6% positive in flow.
Data set [2] concerns AAVS original TALEN right. To be noted: pair with left TALEN, HEK293F, 300 ng donor; control 111.
In data set [3] the test system is AAVS-SBI TALEN right (pZT-AAVS1 R1). To be noted: pair with left TALEN, 300 ng donor; control 111.
For the next data set, the system named is eGFP-TALEN-18-right. The following applies: pair; clone 6F HEK293; control 324; 95.6% positive in flow.

“CCCCTCCACCCCACAGT (double strand) [AAVS left half-site without first T]” displayed an activity (blasticidin-resistant colonies) in data set [1] of 2800. In turn, “TCCCCTCCACCCCACAGT (double strand) [AAVS left TALEN half-site]” returned an activity (blasticidin-resistant colonies) with AAVS original TALEN left of 1420.

In the data set on eGFP-TALEN-18-Left, “TCCACCGGTCGCCA (double strand) [eGFP TALEN left half-site]” showed an activity (blasticidin colonies per 10^6 cells) of 1080.

On to “TTTTCTGTCACCAATCCT (double strand) [AAVS right TALEN half-site]”, for which the activity (blasticidin-resistant colonies) is 1420 in data set [2] and 2800 in data set [3]. In turn, “CGAGGAGCTGTTCA (double strand) [eGFP TALEN right half-site (TALEN reads complement)]” yielded an activity (blasticidin colonies per 10^6 cells) with eGFP-TALEN-18-right of 1080.
